From the nanobody polyreactivity screen of Harvey et al. (2022)

Test: yeast display, Sf9 membrane polyspecificity reagent, FACS + sequencing; frameworks hold sequencing errors
Summary of the method: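 Using colony PCR, genes from sorted yeast display clones were amplified, then sequenced on MiSeq at 2 × 250 and filtered by CDR length. The clones had been stained with 10% biotinylated, detergent-solubilized Sf9 membrane reagent for 1 hour at 4 °C and sorted by FACS into low and high (top ~1%) gates on anti-HA and streptavidin fluorescence. Polyreactivity labels come from the gate of origin.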

| Sequence | polyreactivity (PSR sort gate) |
| --- | --- |
| QVQLVESGGGLVQAGGSLRLSCAASGFTFAWNAKGWYRQAPGKERELVAAINRSGGSTKYADSVKGRFTISRDNAKNTVYLQMNSLKPEDTAVYFCNKYQLVRTYGSYSYYYWVQGTQVTVSS | high polyreactivity |
| QVQLVESGGGLVQAGGSLRLSCAASGFTFAYNAMGWYRQAPGKERELVAAITVSGGRTYYADSVKGRFTISRDNAKNTVYLQMNSLKPEDTAVYYCAATVRVRTNSWMDYWGQGTQVTVSS | low polyreactivity |
| QVQLVESGGGLVQAGGSLRLSCAASGFTFAYNAMGWYRQAPGKETELVAAINSGGGRTYYADSVKGRFTISRDNAKNTVYLQMNSLKPEATAVYYCNAYPYKLDYDYWGQGTQVTVSS | high polyreactivity |
| QVQLVESGGGLVQAGGSLRLSCAASGFTFAYYAMGWYRQAPGKEREFVAAINKGGGSTNYADSVKGRFTISRDNAKNTVYLQMNSLKPEDTAVYYCNADYFVWYIGRVFSRYGYWGQGTQVTVSS | low polyreactivity |
| QVQLVESGGGLVQAGGSLRLSCAASGFTFAYYAMGWYRQAPGKERELVAAISERGGSTYYADSVKGRFTISRDNAKNTVDLQMNSLKPEDTAVYYCARTFWDSPWYQSSYYSWGQGTQVTVSS | low polyreactivity |
| QVQLVESGGGLVQAGGSLRLSCAASGFTFAYYAMGWYRQAPGKERELVAAITSRGGSTYYADSVKGRFTISRDNAKNTVYLQMNSLKPEDTAVYYCATKRVLTGYDSWGQGTQVTVSS | high polyreactivity |
| QVQLVESGGGLVQAGGSLRLSCAASGFTFAYYTMGWYRQAPGKERELVAAINWSGGSTYYADSVKGRFTISRDYAKNTVYLQMNSLKPEDTAVYYCAAKSYWWATYDYWGQGTQVTVSS | high polyreactivity |
| QVQLVESGGGLVQAGGSLRLSCAASGFTFAYYTMGWYRQAPGKERELVATISTSGGSTYYADSVKGRFTISRDNAKNTVYLQMNSLKPEDTAVYYCNRDLGRYYHWYDYWGQGTQVTVSS | low polyreactivity |
| QVQLVESGGGLVQAGGSLRLSCAASGFTFAYYVMGWYRQAPGKERELVAAITRSGDITSYADSVKGRFTISRDNAKNTVYLQMNSLKPEDTAVYYCNARLGYQSRRYNYWGQGTQVTVSS | high polyreactivity |
| QVQLVESGGGLVQAGGSLRLSCAASGFTFDDYAMGWYRQAPGKERELVAAIDDDSSTNYADSVKGRFTISRDNAKNTVYLQMNSLKPEDTAVYYCNARARVSGKWYNYWGQGTQVTVSS | high polyreactivity |
| QVQLVESGGGLVQAGGSLRLSCAASGFTFDFNAMGWSRQAPGKERELVAAISSGASTNYADSVKGRFTISRDNAKNTVYLQMNSLKPEDTAVYYCAARSRTPGWYSTISRKMYWGQGTQVTVSS | high polyreactivity |
| QVQLVESGGGLVQAGGSLRLSCAASGFTFDFYALGWYRQAPGKERELVAAISKNDGTTYYADSVKGRFTISRDNAKNTVYLQMNSLKPEDTAVYYCNAGNNVVVDYDYWGQGTQVTVSS | low polyreactivity |
| QVQLVESGGGLVQAGGSLRLSCAASGFTFDFYAMGWNRQAPGKERELVAVISSSGRTYYADSVKGRFTISRDNAKNSVYLQMNSMKPEDTAVYYCDAKDKRGHTYDYWGQGTQVTVSS | high polyreactivity |
| QVQLVESGGGLVQAGGSLRLSCAASGFTFDGYAIGWYRQAPGKERDLVAAISGAGGSTYYADSVKGRFTISRDNAKNTVYFQMNSLKPEDTAFYYCAAEWIADLSSPVWYDYWGQGTQVTVSS | high polyreactivity |
| QVQLVESGGGLVQAGGSLRLSCAASGFTFDGYAMGSYRQAPGKERELVAAISDSGDSTYYADSVKGRFTISRDNAKNTVYLQMNSLKPEDTAVYYCAAPSVGYYDPTDFDYWGQGTQVTVSS | low polyreactivity |
| QVQLVESGGGLVQAGGSLRLSCAASGFTFDGYAMGWYRQAPGKERELVAAIRRSGASTYYADSVKGRFTISRDNAKNTVYLHMNSLKPEDTAVYYCNATRNYEPRYSSFTLRGYYWGQGTQVTVSS | low polyreactivity |
| QVQLVESGGGLVQAGGSLRLSCAASGFTFDGYAMGWYRQAPVKERDLVAAISDSGDSTYYADSVKGRFTISRDNAKNTVYVQMNILKPEDTAVYYCNAEQWQSSEYGEWSKRDYWGQGTQVTVSS | low polyreactivity |
| QVQLVESGGGLVQAGGSLRLSCAASGFTFDHYAMGWCRQAPGKERELVAAITSSGGRTYYADSVKGRFTISRDNAKNTVYLQMNSLKPEDTAVYYCNARPVYYSGYGYWGQGTQVTVSS | high polyreactivity |
| QVQLVESGGGLVQAGGSLRLSCAASGFTFDKYAMGWYRQAPGKERELVAAISGSGGTTYYADSVKGRFTISRDNAKNTVYLQMNSLKPEDTAVYYCATRLYSIYSYGYWGQGTQVTVSS | high polyreactivity |
| QVQLVESGGGLVQAGGSLRLSCAASGFTFDLYAMGWSRQAPGKERELVASISSGGITYYADSVKGRFTITRDNANNTVYLQMNSLKPEDTAVYYCARDWRYGSWEGDDYWGQGTQVTVSS | low polyreactivity |
| QVQLVESGGGLVQAGGSLRLSCAASGFTFDLYAMGWYRQAPGKERELVAAISWSGGSTRYADSVKGRFTISRDNAKNTVYLQMNSLKPADSAVYYCARQPRLYFKGKLYGYWGQGTHVTVSS | high polyreactivity |

| Sequence | polyreactivity (PSR sort gate) |
| --- | --- |
| QVQLVESGGGLVQAGGSLRLSCAASGFTFDNYVMGWYRQAPGKERELVAAISKSGTSTYYADSVKGRFTISRDNAKNTVYLQMNSLKPEDTAVYYCAAELPGYYYAYDYWGQGTQVTVSS | high polyreactivity |
| QVQLVESGGGLVQAGGSLRLSCAASGFTFDNYVMGWYSQAPGKERELVAAISKSGTSTYYADSVKGRFTISRDNAKNTVYLQMNSLKPEDTAVYYCAAALPGYGDYYYWGQGTQVTVSS | high polyreactivity |
| QVQLVESGGGLVQAGGSLRLSCAASGFTFDRYAMGWYRQAPGKERELVAAISWRGGSTYYADSVKGRFTISRDNAKNTDYLQMNSLKPEDTAVYYCNKGTRHTTAGTPRYDYWGQGTQVTVSS | high polyreactivity |
| QVQLVESGGGLVQAGGSLRLSCAASGFTFDSNAMGWYRQAPGKERELVAAISRRGGSTYYADSVKGRFTISRDNAKNTVYLQMNSLKPEDTAVYYCNKESWRIGRYQYDSWGQGTQVTVSS | high polyreactivity |
| QVQLVESGGGLVQAGGSLRLSCAASGFTFDSYAMGWYRQAPGKERELVAAITSSGGRTYYADSVKGRFTISRDNAKNTVYLQMNSLKPEDTSVYYCAARAISNFGYWGQGTQVTVSS | high polyreactivity |
| QVQLVESGGGLVQAGGSLRLSCAASGFTFDSYAMGWYRQAPGKERELVAAITSTGGSTYYADSVKGRFTISRDTAKNTVYLQMNSLKPEDTAVYYCAARGGYYKRGYWGQGTQVTVSS | high polyreactivity |
| QVQLVESGGGLVQAGGSLRLSCAASGFTFDSYDMGWSRQAPVKEREVVAAITWSGGSTYYADSVKGRFTISRDNAKNTVYLQMNSLKQEDTAVYYCNADTGTYWVPWYHDGYDYWGQGTQVTVSS | low polyreactivity |
| QVQLVESGGGLVQAGGSLRLSCAASGFTFDSYDMGWYRQAPGKERELVAAISKSGGTTYYADSLKGRFTISRDNANNTVYLQMNSLKPEDTAVFYCAAGGPRGGYGRYYYWGPGTQVTVSS | high polyreactivity |
| QVQLVESGGGLVQAGGSLRLSCAASGFTFDSYDMGWYRQAPGKERELVAAITWSGGSTYYADSVKGRFTISRDNAKNTVYLQMYSLKPEDTAVYYCKADTGTYWVPWYHDGYDYWGEGTQVTVSS | low polyreactivity |
| QVQLVESGGGLVQAGGSLRLSCAASGFTFDVNAMGWYRQAPGKERELVASITGSGSRTDYADSVKGRFTISRDNAKNTVYLQMNSLKPEDTAVYYCATDQRLGYQDDDYWGQGTQVTVSS | low polyreactivity |
| QVQLVESGGGLVQAGGSLRLSCAASGFTFDVNAMGWYRQAPGKERELVATISSNGGSTYYADSVKGRFTISRDNAKNTVYLQMNSLKPEDTAVYYCAADVYRLLRRYRYYYWGQGTQVTVSS | low polyreactivity |
| QVQLVESGGGLVQAGGSLRLSCAASGFTFDVYALGWYRQAPGKERELVAAISARGGSTCYADSVKGRFTISRDNAKNTVYLQMHSLKPEDTAVYYCNTYPKKKRPNEYDYWGQGTQVTVSS | high polyreactivity |
| QVQLVESGGGLVQAGGSLRLSCAASGFTFDVYAMGWYRQAPGKERELVAAITGSDGSTYYADSVKGRFTISRDNAKNTVYLQMNSLKPEDTAVYYCNARSRSVVYKYDYWGQGTQVTVSS | low polyreactivity |
| QVQLVESGGGLVQAGGSLRLSCAASGFTFDYNAMGWYRQAPGKDRELVAVISSSGSRTYYADSVKGRFTISRDNAKNTVYLQMNSLKPEDTAVYYCNSGRTYRRLGDYWGQGTQVTVSS | high polyreactivity |
| QVQLVESGGGLVQAGGSLRLSCAASGFTFDYYAMGWYRPAPGKERELVAAISWRGTTTYYADSVKGRFTISRDNEKNTVYLQMNSLKPEDTAVYYCAADSLFGHYDYWGHGTQVTVSS | low polyreactivity |
| QVQLVESGGGLVQAGGSLRLSCAASGFTFDYYAMGWYRQAPGKERELVAAISVSGGITYYADSVKGRFTISRDNAKNTVYLQMNSLKPEDTAVYYCNAVFYYPYPADRRDYWGQGTQVTVSS | high polyreactivity |
| QVQLVESGGGLVQAGGSLRLSCAASGFTFDYYNMGWYRQAPGKERELVAAITSGASTNYADSVKGRFTISRDNAKNTVYLQMNSLKPEDTAVYYCAAVLAGGVYWVVHYDYWGQGTQVTVSS | low polyreactivity |
| QVQLVESGGGLVQAGGSLRLSCAASGFTFEDNTMGWYRQAPGKERELVAAITWGGVSTYYADSVKGRFTISRDNAKNTVYLQMNSLKPEDTAVYYCAAEEQVVKAHGDYWGQGTQVTVSS | low polyreactivity |
| QVQLVESGGGLVQAGGSLRLSCAASGFTFEENAMGWYRQAPGINYSGASTYYADSVKGRFTISRDKAKNTVYLQMNSLKPDDTAVYYCAADVVAQMNYWGQGTQVTVSS | low polyreactivity |
| QVQLVESGGGLVQAGGSLRLSCAASGFTFEGYAMGWYRQAPGKERELVAAISSNGGRTYYADSVKGRFTISRDNAKNTVYLQMNSLKPEDTAVYYCNARRAYSGPDYDYYHGRRYDYWGQGTQVTVSS | low polyreactivity |
